Experimental findings from patent US20240035010, “COMPOSITIONS COMPRISING A VARIANT POLYPEPTIDE AND USES THEREOF” (Arbor Biotechnologies, Inc., published 2024) are described below.

The target of data set [1] is T1, variant nuclease D55G/E736G combination (P14R, D32R, I61R, E311R, D55G, E736G).
T1 chain: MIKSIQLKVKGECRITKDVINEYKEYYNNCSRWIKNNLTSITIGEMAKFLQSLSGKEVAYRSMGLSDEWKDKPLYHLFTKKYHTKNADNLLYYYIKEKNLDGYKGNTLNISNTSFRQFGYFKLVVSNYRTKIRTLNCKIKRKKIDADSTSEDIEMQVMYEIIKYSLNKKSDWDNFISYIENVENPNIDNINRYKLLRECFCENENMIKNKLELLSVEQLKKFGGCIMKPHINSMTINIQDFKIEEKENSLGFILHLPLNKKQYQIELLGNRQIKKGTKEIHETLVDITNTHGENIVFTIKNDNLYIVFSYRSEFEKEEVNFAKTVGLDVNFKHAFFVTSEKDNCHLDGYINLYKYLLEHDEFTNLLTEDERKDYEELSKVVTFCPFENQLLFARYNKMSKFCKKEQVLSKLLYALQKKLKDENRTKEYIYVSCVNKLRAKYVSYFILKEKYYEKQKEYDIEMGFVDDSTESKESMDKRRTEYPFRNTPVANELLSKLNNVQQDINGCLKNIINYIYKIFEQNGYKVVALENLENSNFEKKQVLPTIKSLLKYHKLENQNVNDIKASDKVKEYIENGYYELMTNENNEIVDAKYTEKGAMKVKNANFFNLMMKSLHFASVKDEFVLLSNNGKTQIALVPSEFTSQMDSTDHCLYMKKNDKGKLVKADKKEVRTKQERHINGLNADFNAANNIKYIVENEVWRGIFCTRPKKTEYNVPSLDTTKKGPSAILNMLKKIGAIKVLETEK
As to the kind of experiment: cell_activity; PAM 5'-TTTA-3'. As to conditions: tags: pcDNA3.1 expression. The method, boiled down: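 HEK293T cells were lipofected with nuclease plasmid (pcDNA3.1 backbone) plus RNA guide plasmid, with guide omitted in negative controls. After ~72 h cells were lysed in QuickExtract and % indels were derived from NGS reads, averaged over two bioreplicates and two technical replicates.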

Data set [2] addresses T2, variant nuclease SEQ ID NO: 53 (P14R, D32R, I61R, E311R, T338G, E736G).
T2 chain: T1 chain with G55D, T338G
As to the kind of experiment: cell_activity; % indels; HEK293T; PAM 5'-ATTG-3'. As to conditions: tags: pcDNA3.1 expression.

Where a chain is given by its changes, count along the chain named.

B1: VEGFA crRNA ; VEGFA target (ssRNA ; dsDNA)
RNA: CUUGUUGUAUAUGUCCUUUUAUAGGUAUUAAACAACUCCAGACCACCAAUGGGCAC
DNA 1: TCCAGACCACCAATGGGCAC
DNA 2: GTGCCCATTGGTGGTCTGGA
With B1, in data set [1], the indel activity was 3.06 fold of WT.

B2: EMX1 crRNA ; EMX1 target (ssRNA ; dsDNA)
RNA: CUUGUUGUAUAUGUCCUUUUAUAGGUAUUAAACAACCCGCCGCUUCCUGAGCCAUC
DNA 1: CCGCCGCTTCCTGAGCCATC
DNA 2: GATGGCTCAGGAAGCGGCGG
B2: in data set [2], the indel frequency was 11.9 fold of WT.
